How the values were obtained:
Assay in all cases: SPR, captured hENG-hFc, soluble BMP9; '-' = Binding undetectable
hENG(360-581)-hFc = target: T1, hENG(360-581)-hFc (human, UniProt P17813 360-581)
T1 construct: HEK 293, purified; not shown: linker and human IgG1 Fc domain
T1 sequence: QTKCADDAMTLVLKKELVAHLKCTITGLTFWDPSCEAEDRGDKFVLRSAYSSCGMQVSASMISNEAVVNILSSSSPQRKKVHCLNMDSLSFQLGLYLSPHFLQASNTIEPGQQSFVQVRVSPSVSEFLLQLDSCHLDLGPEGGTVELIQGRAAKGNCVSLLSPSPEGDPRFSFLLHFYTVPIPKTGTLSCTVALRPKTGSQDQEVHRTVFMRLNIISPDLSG
Method: (§1) SPR methodology was used to screen these hENG-hFc protein variants for high-affinity binding to human BMP9 and BMP10. In these experiments, captured hENG-hFc proteins were exposed to soluble BMP9 or BMP10 at 100 nM each.

hENG(61-346)-hFc = target: T2, hENG(61-346)-hFc (human, UniProt P17813 61-346)
T2 construct: HEK 293, purified; not shown: linker and human IgG1 Fc domain
T2 sequence: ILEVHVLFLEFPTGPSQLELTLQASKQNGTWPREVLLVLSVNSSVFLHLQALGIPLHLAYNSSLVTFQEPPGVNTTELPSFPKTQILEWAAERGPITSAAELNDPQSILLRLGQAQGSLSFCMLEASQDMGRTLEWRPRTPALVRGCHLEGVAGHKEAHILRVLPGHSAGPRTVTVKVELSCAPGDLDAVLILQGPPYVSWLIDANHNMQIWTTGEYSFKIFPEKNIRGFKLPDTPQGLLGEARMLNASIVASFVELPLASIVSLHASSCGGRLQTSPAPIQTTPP
Method: as §1

hENG(129-346)-hFc = target: T3, hENG(129-346)-hFc (human, UniProt P17813 129-346)
T3 construct: HEK 293, purified; not shown: linker and human IgG1 Fc domain
T3 sequence: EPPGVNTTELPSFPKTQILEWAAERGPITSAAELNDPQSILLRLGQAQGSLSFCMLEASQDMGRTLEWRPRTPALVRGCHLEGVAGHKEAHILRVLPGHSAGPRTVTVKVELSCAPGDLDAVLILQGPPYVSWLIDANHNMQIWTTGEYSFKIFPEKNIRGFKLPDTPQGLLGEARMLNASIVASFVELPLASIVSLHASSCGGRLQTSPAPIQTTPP
Method: as §1

Measured: binding result

B1: BMP9 (ligand, human, UniProt Q9UK05 320-429, looked up)
chain: SAGAGSHCQKTSLRVNFEDIGWDSWIIAPKEYEAYECKGGCFFPLADDVTPTKHAIVQTLVHLKFPTKVGKACCVPTKLSPISVLYKDDMGVPTLKYHYEGMSVAECGCR
notes: also called hBMP-9; hBMP9
no binding (tested: 100 nM): all assays above
